Legend:
Recombinant PKA = Recombinant PKA (UniProt P17612)
MAST3-HA (human) = MAST3-HA (human) (UniProt O60307)
MAST3-HA (human), sequence (O60307 313-1021): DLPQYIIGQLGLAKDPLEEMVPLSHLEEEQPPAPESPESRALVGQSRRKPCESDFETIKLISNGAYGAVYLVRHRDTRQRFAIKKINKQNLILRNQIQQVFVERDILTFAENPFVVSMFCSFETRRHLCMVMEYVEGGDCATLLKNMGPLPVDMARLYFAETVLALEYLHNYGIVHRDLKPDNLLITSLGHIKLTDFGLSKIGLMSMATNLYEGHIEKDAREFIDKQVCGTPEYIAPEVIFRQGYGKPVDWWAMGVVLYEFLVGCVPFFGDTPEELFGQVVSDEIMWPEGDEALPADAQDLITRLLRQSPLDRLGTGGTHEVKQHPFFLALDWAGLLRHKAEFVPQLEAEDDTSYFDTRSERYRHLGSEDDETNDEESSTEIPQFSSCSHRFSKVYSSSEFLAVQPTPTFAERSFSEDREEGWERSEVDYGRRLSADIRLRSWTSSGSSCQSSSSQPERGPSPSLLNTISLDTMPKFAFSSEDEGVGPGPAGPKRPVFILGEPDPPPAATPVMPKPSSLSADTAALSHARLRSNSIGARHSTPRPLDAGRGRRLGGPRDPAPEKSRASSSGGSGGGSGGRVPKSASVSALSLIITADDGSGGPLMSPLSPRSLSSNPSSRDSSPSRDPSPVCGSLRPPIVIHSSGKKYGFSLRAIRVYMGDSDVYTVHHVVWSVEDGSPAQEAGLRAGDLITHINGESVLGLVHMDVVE

6xHis-ARPP-16, sequence (P56211 17-112): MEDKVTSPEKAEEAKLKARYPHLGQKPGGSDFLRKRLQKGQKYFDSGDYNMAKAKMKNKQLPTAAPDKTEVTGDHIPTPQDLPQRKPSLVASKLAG
P-S46-ARPP-16, sequence (P56211 17-112): as above

Km of phosphorylation of Ser88 by PKA (32P incorporation, 10-500 nM substrate; Figure 1d) (Recombinant PKA) | Km of phosphorylation of Ser46 by immunoprecipitated MAST3 (32P incorporation, 10-500 nM substrate, 2 min; Figure 1b) (MAST3-HA (human)) | Km of phosphorylation of Ser46 by immunoprecipitated MAST3 (32P incorporation, 10-500 nM substrate, 2 min; Figure 1—figure supplement 1) (MAST3-HA (human)) | Substance
1680 nM | 90 nM | 92 nM | 6xHis-ARPP-16 (from UniProt P56211-2 1-96) (natural protein)
870 nM |  |  | P-S46-ARPP-16 (from UniProt P56211-2 1-96) (natural protein)

From publication PMC5515580
